Key:
streptavidin = streptavidin (UniProt P22629); assay: native MS; native CZE online with ESI and a Q-Exactive UHMR Orbitrap; mixture of standard proteins and protein complexes; background electrolyte 25 mM ammonium acetate pH~7.0, sheath buffer 10 mM ammonium acetate pH~7.0; original sample (about 15 ng consumed) and a 50-fold dilution (0.1 ng CRP loaded)
[1] = biological target: T1, C-reactive protein, P02741; assay: as above; details: remark: other sources report otherwise
T1 chain: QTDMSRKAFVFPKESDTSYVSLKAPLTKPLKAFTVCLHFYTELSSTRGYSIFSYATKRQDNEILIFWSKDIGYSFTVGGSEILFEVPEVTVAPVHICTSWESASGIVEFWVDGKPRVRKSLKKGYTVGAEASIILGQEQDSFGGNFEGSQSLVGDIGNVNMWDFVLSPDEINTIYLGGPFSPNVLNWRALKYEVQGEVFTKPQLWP

## streptavidin (from UniProt P22629 25-183) (natural protein)
streptavidin
  stoichiometry N: 4

B1: C-reactive protein, P02741 19-224 (natural protein)
chain: T1 chain
[1]
  stoichiometry N: 5

— PMC11646347
